The source of these data is PMC12689856, “A highly active Burkholderia polyketoacyl-CoA thiolase for production of triacetic acid lactone” (Nature Communications, 2025).

Data set [1] deals with T1, BktBbr (Burkholderia sp. RF2-non_BP3, UniProt Z9IDK7UI24).
T1 construct: synthetic codon-optimised gene in pET-28a(+)-TEV (NdeI/XhoI), E. coli BL21(DE3), Ni-NTA; tetramer
Nature of the data set: X-ray crystal structure, soaked, […] Å. It is filed as binding. The conditions noted are these: 20 mM ligand soak 3 h; active site and CoA tunnel; paper calls CoA esters covalent.

A further data set relates to T2, BktBbb.
T2 construct: gene bktB; synthetic codon-optimised gene in pET-28a(+)-TEV, E. coli BL21(DE3), Ni-NTA
In words: coupled alpha-KGDH assay, NADH fluorescence. It is filed as biochemical, Burkholderia sp. Bp8998. The conditions noted are these: acetyl-CoA as only substrate, 12.5-400 uM; 50 mM sodium phosphate, 3 mM EDTA, 1 mM DTT; 22 °C; 3 uM enzyme. From the text:
coupled alpha-KGDH assay, NADH fluorescence on BktBbb | Michaelis-Menten plot of all BktBs and 2-PS with only acetyl-CoA or malonyl-CoA

Data set [2] has as its system CC(=O)SCCNC(=O)CCNC(=O)[C@H](O)C(C)(C)COP(=O)(O)OP(=O)(O)OC[C@H]1O[C@@H](n2cnc3c(N)ncnc32)[C@H](O)[C@@H]1OP(=O)(O)O. Nature of the data set: purified protein. The conditions noted are these: acetyl-CoA as only substrate, 12.5-400 uM, 50 mM sodium phosphate, 3 mM EDTA, 1 mM DTT, 22 °C, 3 uM enzyme.
For data set [3], the target named is T3, BktBbr (Burkholderia sp. RF2-non_BP3, UniProt Z9IDK7UI24, S254A).
T3 construct: synthetic codon-optimised gene in pET-28a(+)-TEV (NdeI/XhoI), E. coli BL21(DE3), Ni-NTA; tetramer
Nature of the data set: coupled alpha-KGDH assay, TAL formation. It is filed as biochemical. The conditions noted are these: acetoacetyl-CoA varied to 200 uM, acetyl-CoA fixed 200 uM; 22 °C.

Data set [4] addresses T4, BktBbr (Burkholderia sp. RF2-non_BP3, UniProt Z9IDK7UI24, G255A).
T4 construct: synthetic codon-optimised gene in pET-28a(+)-TEV (NdeI/XhoI), E. coli BL21(DE3), Ni-NTA; tetramer
Nature of the data set: coupled alpha-KGDH assay, TAL formation. It is filed as biochemical. The conditions noted are these: acetoacetyl-CoA varied to 200 uM, acetyl-CoA fixed 200 uM; 22 °C.

Data set [5] deals with T1, BktBbr. Nature of the data set: X-ray crystal structure, soaked, […] Å. It is filed as binding. The conditions noted are these: 20 mM ligand soak 3 h; CoA tunnel, water-mediated contacts; paper calls CoA esters covalent.
For data set [6], the target named is T1, BktBbr. In words: X-ray crystal structure, soaked, […] Å. It is filed as binding. The conditions noted are these: 20 mM ligand soak 3 h; active site and CoA tunnel; paper calls CoA esters covalent. The source holds these as a separate data set.
Substrate in data set [7]: CC(=O)SCCNC(=O)CCNC(=O)[C@H](O)C(C)(C)COP(=O)(O)OP(=O)(O)OC[C@H]1O[C@@H](n2cnc3c(N)ncnc32)[C@H](O)[C@@H]1OP(=O)(O)O
In words: coupled alpha-KGDH assay, NADH fluorescence. It is filed as biochemical, Cupriavidus necator. Conditions: acetyl-CoA as only substrate, 12.5-400 uM, 50 mM sodium phosphate, 3 mM EDTA, 1 mM DTT, 22 °C, 3 uM enzyme. From the text:
coupled alpha-KGDH assay, NADH fluorescence on BktBcn | BktBbr and BktBba have slightly higher kcat/KM than BktBcn and BktBcl

Substrate in data set [8]: CC(C)(COP(=O)(O)OP(=O)(O)OC[C@H]1O[C@@H](n2cnc3c(N)ncnc32)[C@H](O)[C@@H]1OP(=O)(O)O)[C@@H](O)C(=O)NCCC(=O)NCCSC(=O)CC(=O)O
In words: coupled alpha-KGDH assay, NADH fluorescence. It is filed as biochemical, Gerbera hybrid cultivar. Conditions: malonyl-CoA as only substrate, 12.5-400 uM, 22 °C. An excerpt: coupled alpha-KGDH assay, NADH fluorescence on 2-PS | Michaelis-Menten plot of all BktBs and 2-PS with only acetyl-CoA or malonyl-CoA

The Km is the substrate concentration at which the rate is half of its maximum. `CC(=O)SCCNC(=O)CCNC(=O)[C@H](O)C(C)(C)COP(=O)(O)OP(=O)(O)OC[C@H]1O[C@@H](n2cnc3c(N)ncnc32)[C@H](O)[C@@H]1OP(=O)(O)O` [acetyl-CoA]: on BktBbr [1], the “X-ray crystal structure, soaked, 2.2 Å” value was “bound with acetyl-CoA, acetoacetyl-CoA, and butyryl-CoA (PDB IDs: 9BWO, 9BWP, 9BWL)”. Besides, the Km in the data set with BktBbb came out at 43.3 ± 16.6 µM.
What is called kcat is the number of substrate molecules converted per active site and unit of time at saturation. The term kcat/Km denotes the second-order rate constant that governs catalysis at low substrate concentration. In the case of BktBbr (Burkholderia sp. RF2-non_BP3), in [2], the Km stood at 23.99 ± 13.47 µM, the kcat turned out to be 1.203 ± 0.115 s⁻¹ and the kcat/Km is 50200 ± 21000 M⁻¹ s⁻¹.
In the case of `CC(=O)CC(=O)SCCNC(=O)CCNC(=O)[C@H](O)C(C)(C)COP(=O)(O)OP(=O)(O)OC[C@H]1O[C@@H](n2cnc3c(N)ncnc32)[C@H](O)[C@@H]1OP(=O)(O)O` [acetoacetyl-CoA], the “coupled alpha-KGDH assay, TAL formation” value was “purified mutants of S254A and G251A exhibited overall better enzyme activity for TAL formation” at BktBbr [3]; “while G255A performed comparably to the wild-type” on BktBbr [4]. Also, on BktBbr [5], the “X-ray crystal structure, soaked, 2.4 Å” value is listed as “Interaction of acetoacetyl-CoA with BktBbr through water molecules (PDB ID: 9BWP)”.
For the molecule `CCCC(=O)SCCNC(=O)CCNC(=O)[C@H](O)C(C)(C)COP(=O)(O)OP(=O)(O)OC[C@H]1O[C@@H](n2cnc3c(N)ncnc32)[C@H](O)[C@@H]1OP(=O)(O)O` [butyryl-CoA], the “X-ray crystal structure, soaked, 2.1 Å” value at BktBbr [6] is recorded as “Binding of butyryl-CoA in the active site (PDB ID: 9BWL)”.

B1: BktBcn (Cupriavidus necator H16) (protein)
chain: MTREVVVVSGVRTAIGTFGGSLKDVAPAELGALVVREALARAQVSGDDVGHVVFGNVIQTEPRDMYLGRVAAVNGGVTINAPALTVNRLCGSGLQAIVSAAQTILLGDTDVAIGGGAESMSRAPYLAPAARWGARMGDAGLVDMMLGALHDPFHRIHMGVTAENVAKEYDISRAQQDEAALESHRRASAAIKAGYFKDQIVPVVSKGRKGDVTFDTDEHVRHDATIDDMTKLRPVFVKENGTVTAGNASGLNDAAAAVVMMERAEAERRGLKPLARLVSYGHAGVDPKAMGIGPVPATKIALERAGLQVSDLDVIEANEAFAAQACAVTKALGLDPAKVNPNGSGISLGHPIGATGALITVKALHELNRVQGRYALVTMCIGGGQGIAAIFERI
notes: synthetic codon-optimised gene in pET-28a(+)-TEV, E. coli BL21(DE3), Ni-NTA; tetramer
Consider B1, for which, in [7], the Km turned out to be 39.25 ± 20.43 µM, the catalytic constant (kcat) amounted to 1.41 ± 0.261 s⁻¹ and the kcat/Km is 41500 ± 16200 M⁻¹ s⁻¹.

B2: 2-PS (Gerbera hybrid cultivar) (protein)
chain: MGSYSSDDVEVIREAGRAQGLATILAIGTATPPNCVAQADYADYYFRVTKSEHMVDLKEKFKRICEKTAIKKRYLALTEDYLQENPTMCEFMAPSLNARQDLVVTGVPMLGKEAAVKAIDEWGLPKSKITHLIFCTTAGVDMPGADYQLVKLLGLSPSVKRYMLYQQGCAAGGTVLRLAKDLAENNKGSRVLIVCSEITAILFHGPNENHLDSLVAQALFGDGAAALIVGSGPHLAVERPIFEIVSTDQTILPDTEKAMKLHLREGGLTFQLHRDVPLMVAKNIENAAEKALSPLGITDWNSVFWMVHPGGRAILDQVERKLNLKEDKLRASRHVLSEYGNLISACVLFIIDEVRKRSMAEGKSTTGEGLDCGVLFGFGPGMTVETVVLRSVRVTAAVANGN
notes: synthetic codon-optimised gene in pET-28a(+)-TEV, E. coli BL21(DE3), Ni-NTA
In the case of B2, in data set [8], the Km was 6.93 ± 1.34 µM, the catalytic constant (kcat) was determined as 0.9298 ± 0.0345 s⁻¹ and the kcat/Km turned out to be 137000 ± 24800 M⁻¹ s⁻¹.
